Molecular target: T1, FhuA (E. coli, UniProt P06971 34-747)
T1 construct: also called FhuA receptor; FhuA transporter
T1 sequence (looked up): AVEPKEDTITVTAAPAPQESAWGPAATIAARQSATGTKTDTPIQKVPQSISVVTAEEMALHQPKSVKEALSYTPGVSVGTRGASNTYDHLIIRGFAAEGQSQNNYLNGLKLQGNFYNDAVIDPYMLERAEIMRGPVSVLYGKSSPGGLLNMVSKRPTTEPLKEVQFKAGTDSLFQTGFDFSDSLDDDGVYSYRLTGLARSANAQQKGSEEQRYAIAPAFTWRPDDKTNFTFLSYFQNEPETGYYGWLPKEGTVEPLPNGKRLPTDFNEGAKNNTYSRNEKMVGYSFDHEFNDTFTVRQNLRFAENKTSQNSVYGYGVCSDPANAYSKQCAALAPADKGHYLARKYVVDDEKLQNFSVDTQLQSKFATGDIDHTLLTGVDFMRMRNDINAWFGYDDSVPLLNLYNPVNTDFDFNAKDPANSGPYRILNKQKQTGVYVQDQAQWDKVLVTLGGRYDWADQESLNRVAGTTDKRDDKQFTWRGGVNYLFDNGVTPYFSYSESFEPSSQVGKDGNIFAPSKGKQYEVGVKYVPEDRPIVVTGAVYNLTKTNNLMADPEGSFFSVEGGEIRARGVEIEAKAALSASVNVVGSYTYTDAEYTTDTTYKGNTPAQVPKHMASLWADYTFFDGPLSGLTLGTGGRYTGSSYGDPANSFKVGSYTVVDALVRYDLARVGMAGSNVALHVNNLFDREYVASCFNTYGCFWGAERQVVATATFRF
Test: CN-PAGE band shift, Coomassie: about 2 µg FhuA in MSPL156 nanodisc with 5 µg colicin M, 5 min at room temperature, without and with ferricrocin

B1: Colicin M (other)
chain: METLTVHAPSPSTNLPSYGNGAFSLSAPHVPGAGPLLVQVVYSFFQSPNMCLQALTQLEDYIKKHGASNPLTLQIISTNIGYFCNADRNLVLHPGISVYDAYHFAKPAPSQYDYRSMNMKQMSGNVTTPIVALAHYLWGNGAERSVNIANIGLKISPMKINQIKDIIKSGVVGTFPVSTKFTHATGDYNVITGAYLGNITLKTEGTLTISANGSWTYNGVVRSYDDKYDFNASTHRGIIGESLTRLGAMFSGKEYQILLPGEIHIKESGKR
notes: also called ColM; His-tagged Colicin M
Question: Does B1 bind?
Answer: binds

Source: patent US20210253643A1 (UNIVERSITY OF BRITISH COLUMBIA, published 2021)
